Tests used:
[1] = biological target: full-length AdeR (AdeR_FL), response regulator of Acinetobacter baumannii (Acinetobacter baumannii ATCC19606); experiment: SEC
[2] = biological target: AdeR receiver domain with linker sequence (AdeR_RD, 1-137) (Acinetobacter baumannii ATCC19606); experiment: SEC
AdeR_FL R231A [3] = biological target: T1, AdeR_FL R231A (Acinetobacter baumannii ATCC19606, UniProt E1A0Z5 1-247, R231A); experiment: EMSA
T1 sequence: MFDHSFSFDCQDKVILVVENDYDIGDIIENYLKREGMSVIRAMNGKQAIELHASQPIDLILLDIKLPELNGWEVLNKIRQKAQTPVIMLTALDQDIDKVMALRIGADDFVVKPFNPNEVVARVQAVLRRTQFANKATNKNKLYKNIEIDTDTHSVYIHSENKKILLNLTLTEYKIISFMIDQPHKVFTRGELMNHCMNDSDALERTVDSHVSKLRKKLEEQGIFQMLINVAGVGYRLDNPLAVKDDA

AdeR_FL R231A [4] = biological target: T1, AdeR_FL R231A; experiment: ITC
AdeR_DBD = biological target: T2, AdeR_DBD (Acinetobacter baumannii ATCC19606, UniProt E1A0Z5 138-247); experiment: ITC
T2 sequence: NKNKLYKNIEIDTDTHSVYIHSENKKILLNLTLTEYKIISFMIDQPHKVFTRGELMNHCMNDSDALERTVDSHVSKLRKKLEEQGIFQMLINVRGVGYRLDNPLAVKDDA

AdeR_FL = biological target: T3, AdeR_FL (Acinetobacter baumannii ATCC19606, UniProt E1A0Z5 1-247); experiment: ITC
T3 sequence: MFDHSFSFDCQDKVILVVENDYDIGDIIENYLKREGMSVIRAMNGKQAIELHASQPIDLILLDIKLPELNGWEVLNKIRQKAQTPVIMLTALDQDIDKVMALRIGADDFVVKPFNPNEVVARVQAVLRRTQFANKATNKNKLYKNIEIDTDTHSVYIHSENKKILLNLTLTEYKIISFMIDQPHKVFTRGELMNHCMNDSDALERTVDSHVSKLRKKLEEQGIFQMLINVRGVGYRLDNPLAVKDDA

AdeR_FL R122A = biological target: T4, AdeR_FL R122A (Acinetobacter baumannii ATCC19606, UniProt E1A0Z5 1-247, R122A); experiment: ITC
T4 sequence: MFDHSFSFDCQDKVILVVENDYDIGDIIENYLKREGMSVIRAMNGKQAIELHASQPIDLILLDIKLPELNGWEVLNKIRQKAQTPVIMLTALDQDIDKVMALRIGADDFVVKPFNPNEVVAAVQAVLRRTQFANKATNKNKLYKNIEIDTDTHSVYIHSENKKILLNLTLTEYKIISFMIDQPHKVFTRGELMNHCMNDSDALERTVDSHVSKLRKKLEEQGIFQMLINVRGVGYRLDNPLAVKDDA

AdeR_FL D63E = biological target: T5, AdeR_FL D63E (Acinetobacter baumannii ATCC19606, UniProt E1A0Z5 1-247, D63E); experiment: ITC
T5 sequence: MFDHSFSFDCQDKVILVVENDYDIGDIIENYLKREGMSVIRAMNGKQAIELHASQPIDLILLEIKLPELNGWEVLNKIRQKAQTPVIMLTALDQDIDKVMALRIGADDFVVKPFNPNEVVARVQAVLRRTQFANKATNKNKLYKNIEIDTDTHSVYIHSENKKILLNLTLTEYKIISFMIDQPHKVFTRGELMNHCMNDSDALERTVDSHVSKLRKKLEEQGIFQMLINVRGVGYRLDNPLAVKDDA

AdeR_FL R205A/R215A = biological target: T6, AdeR_FL R205A/R215A (Acinetobacter baumannii ATCC19606, UniProt E1A0Z5 1-247, R205A;R215A); experiment: ITC
T6 sequence: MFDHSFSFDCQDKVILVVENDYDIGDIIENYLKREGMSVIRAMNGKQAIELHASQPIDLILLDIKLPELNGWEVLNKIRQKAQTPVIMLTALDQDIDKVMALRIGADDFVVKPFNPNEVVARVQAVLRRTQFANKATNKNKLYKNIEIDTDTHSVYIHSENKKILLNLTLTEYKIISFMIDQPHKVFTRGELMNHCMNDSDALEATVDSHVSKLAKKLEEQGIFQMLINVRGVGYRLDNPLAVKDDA

Work on “full-length AdeR (AdeR_FL), response regulator of Acinetobacter baumannii (natural protein)” yielded a stoichiometry N [1] of 2.

In the case of “AdeR receiver domain with linker sequence (AdeR_RD, 1-137) (domain or fragment)”, the stoichiometry N [2] is reported as 2.

B1: biotin 25 bp intercistronic DNA (dsDNA)
DNA 1: TAAAGTGTGGAGTAAGTGTGGAGAA
DNA 2: TTCTCCACACTTACTCCACACTTTA
B1: no binding (AdeR_FL R231A [3]).

B2: 25 bp intercistronic DNA (dsDNA)
DNA 1: TAAAGTGTGGAGTAAGTGTGGAGAA
DNA 2: TTCTCCACACTTACTCCACACTTTA
For B2, the binding result (AdeR_FL R231A [4]) was “no binding”, the Kd (AdeR_DBD) was 2200 nM and the Kd (AdeR_FL) was 20 nM. The Kd (AdeR_FL R122A) was 1000 nM, the binding result (AdeR_FL D63E) was “binds” and the binding result (AdeR_FL R205A/R215A) was “no binding”.

Reference: article PMC5766154
